From PMC12462528, “Molecular basis of ParA ATPase activation by the CTPase ParB during bacterial chromosome segregation” (Nature Communications, 2025)
Where a chain is given by its changes, count along the chain named. Values belong to the binder of their own block, whether it stands above or below them.

What was measured:
ParA (wild type) = molecular target: T1, ParA (wild type) (Myxococcus xanthus DK1622, UniProt Q1CVJ3 1-283); experiment: HDX-MS; 50 µM ParA or ParA-D60A with 1 mM ATP, with or without 1 mM ParB_(1-20) and/or 1 mg/mL salmon sperm DNA; 25 °C (Datasets 1 and 2); settings: both partners purified
T1 construct: ParA of Myxococcus xanthus DK1622, translation product of ORF MXAN_7477; No tag cleavage step is described; also called His6-ParA; wild-type ParA; source: E. coli Rosetta(DE3)pLysS, purified (HisTrap HP, HiTrap Q HP)
T1 sequence (looked up): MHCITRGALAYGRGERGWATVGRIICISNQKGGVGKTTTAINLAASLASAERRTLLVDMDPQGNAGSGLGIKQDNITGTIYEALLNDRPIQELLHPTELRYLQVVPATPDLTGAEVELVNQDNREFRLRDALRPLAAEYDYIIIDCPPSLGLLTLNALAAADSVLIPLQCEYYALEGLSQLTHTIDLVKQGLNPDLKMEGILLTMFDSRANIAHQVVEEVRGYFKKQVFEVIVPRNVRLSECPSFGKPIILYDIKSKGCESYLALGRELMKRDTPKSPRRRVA

His6-ParA_(21-274)-D60A = molecular target: T2, His6-ParA_(21-274)-D60A (Myxococcus xanthus DK1622, UniProt Q1CVJ3 21-274, D60A); experiment: NMR titration; 2H/13C/15N-labelled ParA_(21-274)-D60A (300 µM) titrated with unlabelled ParB_(1-20) to 1:5.8; TROSY 1H-15N HSQC, 298 K, 50 mM HEPES pH 6.8, 150 mM KCl, 5 mM MgSO4, 1 mM DTT, 1 mM ATP; settings: both partners purified
T2 construct: For NMR the protein was 2H/13C/15N-labelled; source: E. coli Rosetta(DE3)pLysS, purified (as His6-ParA)
T2 sequence (looked up): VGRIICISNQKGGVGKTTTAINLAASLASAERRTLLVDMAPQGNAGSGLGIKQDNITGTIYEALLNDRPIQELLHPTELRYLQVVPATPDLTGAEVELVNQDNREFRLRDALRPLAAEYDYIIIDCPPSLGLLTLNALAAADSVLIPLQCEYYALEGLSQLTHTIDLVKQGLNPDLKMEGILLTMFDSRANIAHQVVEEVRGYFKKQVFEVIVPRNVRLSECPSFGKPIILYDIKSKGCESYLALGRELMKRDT

[1] = molecular target: the molecule itself; experiment: HDX-MS; 50 µM ParA or ParA-D60A with 1 mM ATP, with or without 1 mM ParB_(1-20) and/or 1 mg/mL salmon sperm DNA; 25 °C (Datasets 1 and 2)

binding result (ParA (wild type)): binds
binding result (His6-ParA_(21-274)-D60A): binds
B1: ParB_(1-20) peptide (peptide, UniProt Q1CVJ4 1-20, looked up)
peptide: MVKADMQKRALGRGLSALIP
notes: also called N-terminal peptide of ParB; source: synthetic peptide

B2: ParA-D60A (natural protein, Myxococcus xanthus DK1622, UniProt Q1CVJ3 1-283, looked up)
chain: T1 sequence (looked up) with D60A
notes: ParA of Myxococcus xanthus DK1622 lacking the catalytic aspartic acid D60; also called ATPase-deficient ParA variant; source: E. coli Rosetta(DE3)pLysS, purified (as His6-ParA)
binding result [1]: binds
